This experiment has as its target T1, recombinant CaM for NMR (pETM11-CaM, tag cleaved) (UniProt P62149 1-149).
T1 construct: also called ^14N-CaM; ^15N-CaM
The experiment is described as follows: NMR titration. As to conditions: both partners purified.

B1: histidine-tagged recombinant v-Myc bHLH-LZ fragment for NMR (131-amino acid construct, S314-A416) (domain or fragment)
chain: SNNRKCSSPRTLDSEENDKRRTHNVLERQRRNELKLRFFALRDQIPEVANNEKAPKVVILKKATEYVLSLQSDEHKLIAEKEQLRRRREQLKHNLEQLRNSRA
As to B1, the binding result is “binds”.

B2: tag-free Myc (v-Myc bHLH-LZ fragment without the histidine tag) (domain or fragment)
chain: B1 chain
modifications: ^15N-labelled
Regarding B2, the binding result is “binds”.

The values above are taken from paper PMC5356885 (Oncotarget, 2016).
